The values that follow come from US20100075385A1 (DONALD DANFORTH PLANT SCIENCE CENTER, published 2010).

The data set concerns the molecule itself. The data set can be described thus: gel filtration on a calibrated Sephacryl 200 column; self-association of the subunit (43 kDa by SDS-PAGE) into a homodimer. From the text:
Purification and Functional Characterization of Recombinant Enzymes—The PSOMT1 and PSOMT2 cDNAs were each constructed to express the recombinant proteins with six histidine residues elongating the amino terminus. The proteins were then purified from S. frugiperda Sf9 cell culture medium in one step by cobalt affinity chromatography to yield electrophoretically homogeneous proteins. PSOMT1 and PSOMT2 each have relative molecular masses of 43 kDa as determined by SDS-PAGE. This compares with the calculated molecular masses of 39,841 and 38,510 based on the translation of the nucleotide sequences. The native relative molecular masses were determined by gel filtration on a calibrated Sephacryl 200 column (Pharmacia). PSOMT1 and PSOMT2 are each homodimers with an Mr of 85 and 80 kDa, respectively. This is consistent with that observed for norcoclaurine 6-O-methyltransferases of (S)-reticuline biosynthesis in T. tuberosum (4).
On the technique in general: In gel filtration, larger molecules generally elute earlier.

B1: Papaver somniferum (R,S)-norcoclaurine 6-O-methyltransferase (PSOMT2), recombinant, His-tagged subunit (enzyme)
chain: METVSKIDQQNQAKIWKQIYGFAESLVLKCAVQLEIAETLHNNVKPMSLSELASKLPVAQPVNEDRLFRIMRYLVHMELFKIDATTQKYSLAPPAKYLLRGWEKSMVDSILCINDKDFLAPWHHLGDGLTGNCDAFEKALGKSIWVYMSVNPEKNQLFNAAMACDTRLVTSALANECKSIFSDGISTLVDVGGGTGTAVKAISKAFPDIKCTIYDLPHVIADSPEIPNITKISGDMFKSIPSADAIFMKCILHDWNDDECIQILKRCKEALPKGGKVIIVDVVIDMDSTHPYAKIRLTLDLDMMLNTGGKERTKEEWKTLFDAAGFASHKVTQISAVQSVIEAYPY
notes: Full-length open reading frame expressed in Sf9 cells with an N-terminal His tag and purified on cobalt resin; GenBank AY268894 is printed for it; also called Pso6OMT; Ps6OMT; not shown: six histidine residues elongating the amino terminus (pFastBac HTa vector)
As for B1, the binding result is “binds”.

B2: Papaver somniferum (R,S)-reticuline 7-O-methyltransferase (PSOMT1), recombinant, His-tagged subunit (enzyme)
chain: MDTAEERLKGQAEIWEHMFAFVDSMALKCAVELGIPDIINSHGRPVTISEIVDSLKTNTPSSSPNIDYLTRIMRLLVHKRLFTSELHQESNQLLYNLTRSSKWLLKDSKFNLSPLVLWETNPILLKPWQYLGKCAQEKSSPFERAHGCEIWDLALADPKFNNFLNGAMQCSTTTIINEMLLEYKDGFSGIAGSLVDVGGGTGSIIAEIVKAHPHIQGINFDLPHVVATAAEFPGVKHVGGDMFVDIPEADAVIMKWILHDWSDEDCTIILKNCYRAIRKKKNGKVIIVDCVLRPDGNDLFDKMGLIFDVLMMAHTTAGKERTEAEWKILLNNAGFPRYNVIRTPAFPCIIEAFPE
notes: Full-length open reading frame expressed in Sf9 cells with an N-terminal His tag and purified on cobalt resin; GenBank AY268893 is printed for it; also called Pso7OMT; Ps7OMT; not shown: six histidine residues elongating the amino terminus (pFastBac HTa vector)
With B2, the binding result was “binds”.
